1 molecule from patent publication US20250332277A1, “PROTEIN TYROSINE KINASE 7 ANTIBODIES AND ANTIBODY-DRUG CONJUGATES” (Eli Lilly and Company, priority 2024, published 2025) can be followed below.

In the test the target is human PTK-7 on cells (OV90-PTK-7, NCI-H446, OVCAR-3) (human) (UniProt Q13308). Nature of the test: cell-based or functional assay.
human PTK-7 on cells (OV90-PTK-7, NCI-H446, OVCAR-3) (human), sequence (Q13308 31-1070 limits assumed): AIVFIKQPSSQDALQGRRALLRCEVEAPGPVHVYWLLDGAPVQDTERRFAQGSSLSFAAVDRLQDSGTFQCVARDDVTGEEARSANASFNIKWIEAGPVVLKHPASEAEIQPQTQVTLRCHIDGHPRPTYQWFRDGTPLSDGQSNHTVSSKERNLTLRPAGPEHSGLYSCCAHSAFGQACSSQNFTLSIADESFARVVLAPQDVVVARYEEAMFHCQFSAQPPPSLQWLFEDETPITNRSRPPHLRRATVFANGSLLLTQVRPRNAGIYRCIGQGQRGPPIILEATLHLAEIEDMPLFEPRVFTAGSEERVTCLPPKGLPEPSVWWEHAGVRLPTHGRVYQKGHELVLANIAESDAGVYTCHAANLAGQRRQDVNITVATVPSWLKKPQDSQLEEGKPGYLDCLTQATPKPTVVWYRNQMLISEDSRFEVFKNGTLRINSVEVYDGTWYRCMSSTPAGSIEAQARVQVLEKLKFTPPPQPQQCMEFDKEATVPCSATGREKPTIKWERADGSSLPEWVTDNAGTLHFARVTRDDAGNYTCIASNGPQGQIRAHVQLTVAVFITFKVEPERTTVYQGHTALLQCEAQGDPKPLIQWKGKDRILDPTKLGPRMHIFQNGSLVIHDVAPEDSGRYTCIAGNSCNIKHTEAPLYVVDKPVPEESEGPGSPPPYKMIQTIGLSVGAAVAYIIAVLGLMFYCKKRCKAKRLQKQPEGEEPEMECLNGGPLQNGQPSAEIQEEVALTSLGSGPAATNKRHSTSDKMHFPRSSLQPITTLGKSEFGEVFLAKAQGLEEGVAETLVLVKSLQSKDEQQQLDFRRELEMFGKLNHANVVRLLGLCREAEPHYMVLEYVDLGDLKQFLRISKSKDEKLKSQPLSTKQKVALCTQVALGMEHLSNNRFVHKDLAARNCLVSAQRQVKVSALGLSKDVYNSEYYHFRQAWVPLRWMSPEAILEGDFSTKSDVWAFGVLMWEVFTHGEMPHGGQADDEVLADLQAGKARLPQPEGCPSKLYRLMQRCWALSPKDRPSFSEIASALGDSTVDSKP

B1: Cofetuzumab-Pelidotin (protein, INN chains, looked up)
VH: QVQLVQSGPEVKKPGASVKVSCKASGYTFTDYAVHWVRQAPGKRLEWIGVISTYNDYTYNNQDFKGRVTMTRDTSASTAYMELSRLRSEDTAVYYCARGNSYFYALDYWGQGTSVTVSS
VL: EIVLTQSPATLSLSPGERATLSCRASESVDSYGKSFMHWYQQKPGQAPRLLIYRASNLESGIPARFSGSGSGTDFTLTISSLEPEDFAVYYCQQSNEDPWTFGGGTKLEIK
modifications: pelidotin auristatin payload
In turn, B1 had a Cytotoxicity IC50, OV90-PTK-7 cells (CellTiter-Glo, 5 days) of 0.0331 pM and a Cytotoxicity IC50, OVCAR-3 cells (CellTiter-Glo, 7 days) of 2.53 nM.
